Source: patent publication US20200079844A1
Where two headings read alike, the source gives them in different places.

What was measured:
rhesus TNFα (rhesus) [1] = biological target: rhesus TNFα (rhesus) (UniProt P48094)
rhesus TNFα (rhesus) [2] = biological target: rhesus TNFα (rhesus) (UniProt P48094); remark: listed apart in the source
human TNFα (human) [3] = biological target: human TNFα (human) (UniProt P01375); assay: cell-based or functional assay
rhesus TNFα (rhesus) [4] = biological target: rhesus TNFα (rhesus) (UniProt P48094); assay: cell-based or functional assay
human TNFα (human) [5] = biological target: human TNFα (human) (UniProt P01375); assay: cell-based or functional assay; remark: listed apart in the source

Chain of rhesus TNFα (rhesus) (P48094 77-233 limits assumed): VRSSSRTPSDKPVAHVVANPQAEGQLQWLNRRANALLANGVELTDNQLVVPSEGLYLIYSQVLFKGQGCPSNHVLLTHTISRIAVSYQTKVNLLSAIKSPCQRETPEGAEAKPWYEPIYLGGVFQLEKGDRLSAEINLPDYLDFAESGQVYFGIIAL
Chain of human TNFα (human) (P01375 77-233 limits assumed): as the sequence (P48094 77-233 limits assumed) above, with T44R, N72T, L138R counted along it

EC50 (read off the curve) (rhesus TNFα (rhesus) [1])	EC50 (read off the curve) (rhesus TNFα (rhesus) [2])	EC50 in nM; alphaKYM cell assay (10000 c/w), human TNFa @ 1 ng/ml (human TNFα (human) [3])	IC50 in pM; TNFα-induced IL-6 production by RA synovial fibroblasts, donor DS534 P4 (human TNFα (human) [3])	IC50 in pM; TNFα-induced IL-6 production by RA synovial fibroblasts, donor DS592 P4 (human TNFα (human) [3])	IC50 in pM; TNFα-induced IL-6 production by RA synovial fibroblasts, donor DS605 P3 (human TNFα (human) [3])	IC50 in pM; TNFα-induced IL-6 production by RA synovial fibroblasts, donor KM05-179 P4 (human TNFα (human) [3])	p[IC]50; TNFα-induced IL-6 production by RA synovial fibroblasts, donor DS534 P4 (human TNFα (human) [3])	p[IC]50; TNFα-induced IL-6 production by RA synovial fibroblasts, donor DS592 P4 (human TNFα (human) [3])	p[IC]50; TNFα-induced IL-6 production by RA synovial fibroblasts, donor DS605 P3 (human TNFα (human) [3])	p[IC]50; TNFα-induced IL-6 production by RA synovial fibroblasts, donor KM05-179 P4 (human TNFα (human) [3])	Substance	EC50 in nM (mean); cytotoxicity assay, human TNFα (human TNFα (human) [3])	EC50 in nM (mean); L929s + Act D cytotoxicity assay, rhesus TNFa @ 0.5 ng/ml (rhesus TNFα (rhesus) [4])	EC50 in nM (mean); L929s + Act D cytotoxicity assay, rhesus TNFα @ 0.5 ng/ml (rhesus TNFα (rhesus) [4])	EC50 in nM (mean); cytotoxicity assay, human TNFα (human TNFα (human) [5])	EC50 in nM (mean); L929s + Act D cytotoxicity assay, human TNFa @ 0.5 ng/ml (human TNFα (human) [3])	EC50 in nM (mean); L929s + Act D cytotoxicity assay, human TNFα @ 0.5 ng/ml (human TNFα (human) [3])
90 pM	100 pM	0.103 nM									Humira (Adalimumab) (antibody)	0.141 nM	0.071 nM	0.071 nM	0.127 nM		
10 pM		0.04 nM	282 pM	324 pM	309 pM	309 pM	9.55	9.49	9.51	9.51	Enbrel (Etanercept) (Fc fusion)		0.009 nM	0.009 nM		0.009 nM	0.009 nM
											Remicade (Infliximab) (antibody)		> 6.7 nM	> 6.7 nM			
			132 pM	363 pM	427 pM	537 pM	9.88	9.44	9.37	9.27	ALX0071						
